# Source: patent US20250108138A1, “TH[…] CONJUGATES” (MERCK PATENT GMBH, priority 2022, published 2025)
# Assays:
# [1] = n-octanol/PBS distribution coefficient (log D); type: physicochemical; settings: n-octanol/PBS pH 7.4, mean±SD
# Protocol: Example 5: PBS/n-Octanol Distribution Coefficient (Log D Values) The n-octanol/PBS distribution coefficients (log D values) were determined for each folate radioconjugate of the disclosure and a reference compound in order to assess their hydrophilic/hydrophobic properties. The log D values of the folate radioconjugates of the disclosure (50 MBq/nmol) were determined as previously reported, after dilution in PBS pH 7.4 to obtain an activity concentration of 10 MBq/500 μL. A sample of each radiofolate (ca. 0.5 MBq, 25 μL, 0.01 nmol) was added to a mixture of 1475 μL PBS pH 7.4 and 1500 μL n-octanol. The vials were vortexed vigorously for 1 min followed by centrifugation for 6 min at 2500 rpm for phase separation. An aliquot was taken from each phase and measured in a gamma-counter (Perkin Elmer, Wallac Wizard 1480). The distribution coefficients were calculated as the logarithm of the ratio of counts per minute (cpm) measured in the n-octanol phase relative to the cpm measured in the PBS phase. The results were listed as mean±SD of the data obtained from 3-4 independent experiments, each performed with five replicates.
# [2] = molecular target: T1, albumin in mouse blood plasma (Mus musculus, UniProt P07724); experiment: Albumin-bound fraction, ultrafiltration filter assay, mouse blood plasma; type: in vitro ADME; settings: 37° C., 30 min, percentage of total activity measured
# T1 construct: tissue Rockland Immunochemicals, Inc., USA; host or cells: mouse blood plasma
# T1 sequence (P07724 25-608): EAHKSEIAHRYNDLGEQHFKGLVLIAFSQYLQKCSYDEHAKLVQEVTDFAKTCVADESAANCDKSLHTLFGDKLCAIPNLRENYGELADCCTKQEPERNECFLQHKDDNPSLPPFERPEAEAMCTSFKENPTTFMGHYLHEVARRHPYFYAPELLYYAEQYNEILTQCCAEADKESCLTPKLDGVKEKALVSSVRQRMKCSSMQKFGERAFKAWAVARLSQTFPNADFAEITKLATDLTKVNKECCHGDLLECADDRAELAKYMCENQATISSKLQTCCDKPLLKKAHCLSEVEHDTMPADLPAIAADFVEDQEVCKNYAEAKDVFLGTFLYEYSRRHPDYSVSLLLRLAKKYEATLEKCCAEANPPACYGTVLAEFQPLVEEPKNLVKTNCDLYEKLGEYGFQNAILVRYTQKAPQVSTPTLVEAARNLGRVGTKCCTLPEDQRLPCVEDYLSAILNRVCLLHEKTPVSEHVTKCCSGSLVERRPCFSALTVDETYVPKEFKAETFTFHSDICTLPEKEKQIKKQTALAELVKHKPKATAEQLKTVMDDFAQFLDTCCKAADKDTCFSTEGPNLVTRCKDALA
# Protocol: (§1) Albumin-binding properties were determined in mouse and human blood plasma. The albumin-binding properties of the folate radioconjugates of the disclosure in mouse blood plasma (Rockland Immunochemicals, Inc., USA) and human blood plasma (Stiftung Blutspende SRK Aargau-Solothurn, Switzerland) were determined using an ultrafiltration method (Deberle, L. M. et al., Molecules 2020, 25, (11)). The amount of serum albumin in mouse (MSA) and human (HSA) blood plasma was defined as 550 μM and 800 μM, respectively, based on measurements using a dry chemistry analyzer (DRI-CHEM 4000i, FUJIFILM, Japan). The folate radioconjugates of the disclosure (50 MBq/nmol, ca. 300 kBq, 0.006 nmol in 15 μL) were added to samples of mouse and human blood plasma (150 μL), followed by incubation of the samples at 37° C. for 30 min. The samples were loaded on Amicon centrifugal filters (cut-off of 10 kDa; Merck Millipore) followed by centrifugation (14,000 rcf, 30 min, 4° C.) to allow the separation of the plasma-bound from the plasma-unbound (free) fractions of each sample. […] The activity of the protein-bound fraction as well as the activity in the filtrate and in the filter unit were measured separately in a gamma-counter (Perkin Elmer, Wallac Wizard 1480). The percentage of radioconjugate bound to mouse and human albumin, respectively, was set in relation to the total activity measured (Table 4).
# [3] = molecular target: T2, albumin in human blood plasma (Homo sapiens, UniProt P02768); experiment: Albumin-bound fraction, ultrafiltration filter assay, human blood plasma; type: in vitro ADME; settings: 37° C., 30 min, percentage of total activity measured
# T2 construct: tissue Stiftung Blutspende SRK Aargau-Solothurn, Switzerland; host or cells: human blood plasma
# T2 sequence (P02768 25-609): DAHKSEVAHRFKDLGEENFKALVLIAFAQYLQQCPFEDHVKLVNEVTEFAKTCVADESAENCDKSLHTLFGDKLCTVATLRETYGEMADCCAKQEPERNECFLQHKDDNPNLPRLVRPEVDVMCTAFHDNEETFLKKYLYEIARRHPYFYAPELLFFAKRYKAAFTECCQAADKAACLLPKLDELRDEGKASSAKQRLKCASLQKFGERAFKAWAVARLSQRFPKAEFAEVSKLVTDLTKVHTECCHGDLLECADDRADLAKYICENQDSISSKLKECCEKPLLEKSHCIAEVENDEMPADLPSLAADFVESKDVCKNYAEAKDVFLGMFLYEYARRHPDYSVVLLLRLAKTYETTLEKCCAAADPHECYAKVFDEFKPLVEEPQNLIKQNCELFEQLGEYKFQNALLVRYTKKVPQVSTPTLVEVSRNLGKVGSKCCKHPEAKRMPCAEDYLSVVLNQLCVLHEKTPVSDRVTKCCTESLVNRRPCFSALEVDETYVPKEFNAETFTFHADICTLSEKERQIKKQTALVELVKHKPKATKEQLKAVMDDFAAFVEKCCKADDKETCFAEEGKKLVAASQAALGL
# Protocol: as §1
# [4] = molecular target: T3, mouse serum albumin (MSA) (Mus musculus, UniProt P07724); experiment: Relative albumin-binding affinity (B50), mouse blood plasma; type: in vitro ADME; settings: inverse ratio of B50, normalized to [^177Lu]Lu-OxFol-1 (set as 1.0)
# T3 construct: The amount of serum albumin in mouse (MSA) and human (HSA) blood plasma was defined as 550 μM and 800 μM; tissue Rockland Immunochemicals, Inc., USA; host or cells: mouse blood plasma
# T3 sequence (P07724 25-608): as the sequence (P07724 25-608) above
# Protocol: (§2) Relative albumin-binding affinity of the folate radioconjugates of the disclosure: The albumin-binding affinity of the folate radioconjugates of the disclosure was assessed and compared to that of [^177Lu]Lu-OxFol-1. A fixed amount of radioconjugate (50 MBq/nmol), ^˜300 kBq, 15 μL, 0.006 nmol) was added to a defined volume (150 μL) of mouse and human blood plasma and various dilutions thereof in PBS pH 7.4, resulting in defined mouse serum albumin (MSA)-to-folate radioconjugate or human serum albumin (HSA)-to-folate radioconjugate molar concentration ratios ranging from 0.01 to 12′500 and 0.01 to 20′000, respectively. The albumin-bound fraction was determined using an ultrafiltration device as described above.
# (§3) The data were analyzed using a semi-logarithmic plot assuming a maximum binding of 100%. The Hill equation was fitted to the data points and the half-maximum binding (B50) was determined based on the obtained binding curves (GraphPad Prism software, version 8). The relative albumin-binding affinities were defined as the inverse ratio of the B50 value of each radioconjugate of the disclosure to the reference compound [^177Lu]Lu-OxFol-1 (set as 1.0). […] The results were presented as average±SD of 2-3 independent experiments (Table 5).
# [5] = molecular target: T4, human serum albumin (HSA) (Homo sapiens, UniProt P02768); experiment: Relative albumin-binding affinity (B50), human blood plasma; type: in vitro ADME; settings: inverse ratio of B50, normalized to [^177Lu]Lu-OxFol-1 (set as 1.0)
# T4 construct: tissue Stiftung Blutspende SRK Aargau-Solothurn, Switzerland; host or cells: human blood plasma
# T4 sequence (P02768 25-609): as the sequence (P02768 25-609) above
# Protocol: as §2, §3
# FR = molecular target: T5, FR (Homo sapiens, UniProt P15328); experiment: FR-binding affinity (KD) on FR-positive IGROV-1 cells; settings: 1 h at 4° C., specific binding (excess folic acid block)
# T5 construct: FR-positive IGROV-1 cells (human ovarian carcinoma cell line); endogenous in cells; host or cells: IGROV-1 human ovarian carcinoma cells
# T5 sequence (P15328 25-234): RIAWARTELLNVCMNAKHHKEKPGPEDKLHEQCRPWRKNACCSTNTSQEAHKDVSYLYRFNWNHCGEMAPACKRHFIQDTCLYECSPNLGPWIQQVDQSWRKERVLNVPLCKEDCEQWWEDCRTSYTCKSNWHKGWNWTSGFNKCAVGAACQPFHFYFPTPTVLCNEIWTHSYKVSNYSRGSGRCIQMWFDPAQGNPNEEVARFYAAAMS
# Protocol: The determination of the KD values was performed as previously reported (Deberle, L. M. et al; Bioconj Chem 2021, 32, p. 1617). FR-positive IGROV-1 cells (human ovarian carcinoma cell line, kindly provided by Dr. Gerrit Janssen, Free University Medical Center Amsterdam, The Netherlands) were seeded in 48-well plates (2.5×10^5 cells/well) in 500 μL FFRPMI medium with supplements. The cells were incubated at 37° C. and 5% CO2 to allow cell adhesion overnight. The experiment was performed on ice using ice-cold medium and buffer solutions. After removal of the supernatant, the cells were rinsed once with PBS prior to the addition of FFRPMI medium without supplements (450 μL/well). The respective folate radioconjugate of the disclosure (20 MBq/nmol) was added to each well at variable concentrations (in the range of 0.1 to 500 nM, 50 μL per well). […] The IGROV-1 tumor cells were incubated for 1 h at 4° C. on a shaker, followed by removal of the supernatants and rinsing the cells twice with PBS. After lysis of the cells with NaOH solution (1 M, aq., 500 μL), the samples were counted for activity in a γ-counter (Wallac Wizard 1480, Perkin Elmer). The counts per minute (cpm) of the specific binding (determined by subtracting the cpm of the unspecific binding from the cpm of total binding), were plotted against the molar concentration of the added folate radioconjugates of the disclosure. […]
compound,measurement,setting,value
"Nc1nc2ncc(CNc3ccc(C(=O)N[C@@H](CCC(=O)N[C@@H](CCCCNC(=O)CN4CCN(CC(=O)O)CCN(CC(=O)O)CCN(CC(=O)O)CC4)C(=O)N[C@@H](CCCCNC(=O)CCCc4ccc(I)cc4)C(=O)O)C(=O)O)cc3)nc2c(=O)[nH]1 [[^177Lu]Lu-OxFol-1, metal not drawn]",logD Value,[1],−4.2 ± 0.2
same,"Albumin-bound fraction, mouse blood plasma",[2],90%
same,"Albumin-bound fraction, human blood plasma",[3],96%
same,"Relative albumin-binding affinity, mouse plasma",[4],1.00
same,"Relative albumin-binding affinity, human plasma",[5],1.00
same,Kd,FR,2.8 nM
